Results taken from the supplement of paper PMC9732359.
± gives the uncertainty stated by the source.

experiment: protein stability index of a GFP-peptide fusion (yeast GPS) (PSI 1-4); higher = more stable; sorted into four equal gates, so the index is relative within each strain; details: doa10∆
In short: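 The protein stability index combines read frequencies across sorting gates, each weighted by its gate number and then summed. To obtain those frequencies, a pooled yeast library of GFP fusions to tiled 17-residue yeast protein peptides, on a plasmid also expressing Cherry, was grown to mid-log phase in leucine-free medium. The cells were sorted into four equal gates by GFP/Cherry ratio before plasmid amplification by PCR and Illumina sequencing.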

| Sequence | protein stability index |
| --- | --- |
| TCVAKKGIAKEHAKWGP [RPB3] | 3.31 ± 0.07 |

same assay, conditions: pdr5∆

| Sequence | protein stability index |
| --- | --- |
| SPDGRNFQVEYAVKAVE [PRE10] | 2.81 ± 0.077 |
| SPDSTVNRSVVVSAVGE [YAR002W/NUP60] | 2.91 ± 0.088 |
| SPEGRLFQVEYSLEAIK [PUP2] | 2.86 ± 0.1 |
| SPFLMGHPMTKSVYETP [SEC65] | 2.55 ± 0.068 |
| SPIGFTNSPQISVTRQV [SMC2] | 3.09 ± 0.047 |
| SPIKNGSCTRQLAGKSG [YOR098C/NUP1] | 3.02 ± 0.056 |
| SPKPYAVKYGLNHVVSL [RPL8B] | 2.09 ± 0.069 |
| SPLLESDSIEKIVEIDR [PUP2] | 3.08 ± 0.1 |
| SPMINSTSSGKVSYAVK [SNM1] | 3.11 ± 0.065 |
| SPQAVSSFVRQELAKSI [PRE1] | 2.33 ± 0.072 |
| SPTSPSYSPTSPSYSPT [RPO21] | 2.91 ± 0.039 |
| SPYERRLIDLIRNSGEK [RPL36A] | 1.89 ± 0.098 |
| SQIIPLMKKACYVGLLT [SNU114] | 1.82 ± 0.06 |
| SQKHNGRILKWLWPLCR [CDC53] | 1.33 ± 0.071 |
| SQLKKSKAQQKTAEQVA [RPL7A] | 2.79 ± 0.087 |
| SQLKKTKAQQKTAEQIA [RPL7B] | 2.92 ± 0.11 |
| SQLQEQFNKILPEPTEG [FAS1] | 3.17 ± 0.12 |
| SQRPGARILARSERKRT [ITC1] | 2.79 ± 0.17 |
| SQSKGTVWSANFEYDLS [YOR098C/NUP1] | 3.35 ± 0.15 |
| SQSLTSILVIVQKILPL [SWI1] | 1.39 ± 0.035 |
| SQSRSAKAGLTFPVGRV [HTA1] | 2.85 ± 0.08 |
| SQTNNSFLSGVKSLLSE [SIR4] | 3.26 ± 0.067 |
| SRDKTIKVWTIKGQCLA [ASC1] | 2.04 ± 0.074 |
| SRFSPEKLAVSALEQAI [YGL100W/SEH1] | 2.36 ± 0.12 |
| SRGNGGKKVLNKNQLLK [POP1] | 2.54 ± 0.11 |
| SRKQKVIKTLTVDVSSP [RPL22B] | 2.6 ± 0.08 |

| Sequence | protein stability index |
| --- | --- |
| SRLLDILEDYCYFRDFE [ISW2] | 1.42 ± 0.089 |
| SRPEYSCTFWSDKESNA [YJL039C/NUP192] | 2.5 ± 0.061 |
| SRQKSGLFDSFTNGVLA [YML031W/NDC1] | 1.5 ± 0.065 |
| SRQVQKRPRSRTLTAVH [RPS7A] | 2.33 ± 0.034 |
| SRRFKNGFQTGSASKAS [RPL37A] | 2.73 ± 0.087 |
| SRRLMKSLEDLSCQYDN [RPO31] | 1.42 ± 0.17 |
| SRSSVCVKAIEALFQSR [YCG1] | 2.92 ± 0.085 |
| SSATIVLCLTRSSYMLE [YCG1] | 2.1 ± 0.038 |
| SSDDRVKVLAATNRVDV [RPT5] | 2.95 ± 0.26 |
| SSFKEDCLSFAPTLSQT [SSN2] | 2.67 ± 0.1 |
| SSFSLTFFPRCIIAVSC [POP1] | 1.86 ± 0.035 |
| SSGDFDDNNNNNNNNNN [GRR1] | 3.18 ± 0.057 |
| SSISWKNIAQCLSDYTK [YJL039C/NUP192] | 2.11 ± 0.076 |
| SSKKSKRLDKVGKKKGG [LRP1] | 1.17 ± 0.068 |
| SSKYAYMMNSQSPRGKI [YLR018C/POM34] | 2.69 ± 0.065 |
| SSLFNNSTNSNTTKPAF [YJL041W/NSP1] | 2.15 ± 0.049 |
| SSLHSPTSDEPVPESAG [SRB4] | 3.16 ± 0.081 |
| SSLLYTYDENDDFFKEL [ESC2] | 2.8 ± 0.17 |
| SSLNGTNAKIPQFDSTQ [SSN3] | 3 ± 0.093 |
| SSLVQKGLETIDNGAES [RPC53] | 3.02 ± 0.21 |
| SSNISPEQVYSLLLTNV [ARP7] | 2.48 ± 0.036 |
| SSNPNSSLHSPTSDEPV [SRB4] | 2.99 ± 0.079 |
| SSSSLECATCHGNLASC [RPO31] | 3.04 ± 0.058 |
| SSTLGIDLEDIKEELTK [PCI8] | 3.1 ± 0.094 |
| SSVIQNYDIITASSLAH [YML103C/NUP188] | 1.88 ± 0.066 |
| SSVMSSPRVEKRSFSST [YOR098C/NUP1] | 2.23 ± 0.041 |

| Sequence | protein stability index |
| --- | --- |
| STFRLNLSVTSPYNADF [RPO21] | 2.34 ± 0.054 |
| STFTKHLIKCFFKITLQ [ITC1] | 1.28 ± 0.03 |
| STGLKSASDALKGRVVE [RPS1A] | 3.31 ± 0.071 |
| STIITKAINQELEDVAV [YCS4] | 3.22 ± 0.11 |
| STKKIQVATKYASLKLP [YMR129W/POM152] | 1.93 ± 0.036 |
| STKKKILGIHTSKMNLS [RPT2] | 3.21 ± 0.096 |
| STLHMLGYTHIAINFTV [RPP1] | 1.39 ± 0.037 |
| STLKSFFTNPNKKRPSS [YOR098C/NUP1] | 3.06 ± 0.049 |
| STLTTISGNPPLLYNSL [SRB5] | 2.46 ± 0.038 |
| STLYKYLKESKRKYDEI [SWI3] | 3.42 ± 0.24 |
| STPNFGGNSNKSPPQFF [SIN4] | 3.1 ± 0.043 |
| STRKTPNGEGSKTWETY [RPS20] | 3.36 ± 0.16 |
| STRVEFEKLYSDLMKFL [FAS2] | 3.27 ± 0.2 |
| STSENKISEGSAKPTFS [YOR098C/NUP1] | 2.52 ± 0.26 |
| STSKFESQYPIVTEQPS [SWP82] | 2.58 ± 0.046 |
| STSNALKVLSGDEGYNE [SNF12] | 3.24 ± 0.11 |
| STSNTPSPPNVIITDGT [YDL088C/ASM4] | 2.95 ± 0.031 |
| STSSGKVSYAVKKPQKS [SNM1] | 2.76 ± 0.1 |
| STTNSDVSLLLQRDLFI [RGR1] | 3.06 ± 0.1 |
| STVIEEFTLFMDIAERI [YGL172W/NUP49] | 2.71 ± 0.053 |
| SVAKIRFPETMDETQTR [RPO21] | 3.34 ± 0.12 |
| SVAVHFQYVIDESSGTS [SMC4] | 1.6 ± 0.074 |
| SVERGRKRAHSLVSTQS [REC8] | 3.12 ± 0.066 |
| SVFYNIANMVLPPEKIY [SIR2] | 1.77 ± 0.043 |
| SVGLPSKVASSLVIIIL [ECM29] | 1.8 ± 0.041 |
| SVGNLEVVKSLYDRPLK [NAS6] | 2.89 ± 0.2 |

| Sequence | protein stability index |
| --- | --- |
| SVNFFVSLLKKNWQNVG [RPL1A] | 1.32 ± 0.063 |
| SVNPAMLPGSSNGGGKV [RPO31] | 3.36 ± 0.12 |
| SVPTNSADAPNPNNVNV [RET1] | 3.14 ± 0.081 |
| SVTEIPLKLSGEGPFTV [YMR129W/POM152] | 3.23 ± 0.079 |
| SVVRGNTFKVLSKFFFF [COB] | 2.2 ± 0.13 |
| SWEEGTRQSSRNFDTHE [MCD1] | 3.59 ± 0.13 |
| SYEVEHVIQIPLNKPLL [TAF14] | 2.66 ± 0.045 |
| SYFLQERYFDCCTKFFT [PCI8] | 1.52 ± 0.059 |
| SYHNGNLKGRPYTGWVD [FAS2] | 3.13 ± 0.1 |
| SYIGTIIVKDKSNDSEG [POP1] | 1.44 ± 0.052 |
| SYINVTFRAVVFKPFLG [RPC25] | 1.95 ± 0.061 |
| SYLEERERQVNEKLADL [RPC53] | 3.42 ± 0.16 |
| SYRNGMASYMLNSFAFE [YJR042W/NUP85] | 2.45 ± 0.11 |
| SYVAVLGMGKAVEKTLA [POP7] | 2.17 ± 0.081 |
| SYVETLDSMIELFKDYK [MED1] | 3.22 ± 0.1 |
| SYYGIVCLMQISTRERD [RRP6] | 1.41 ± 0.081 |
| TAASVFKELCYENKDNL [PRE3] | 2.45 ± 0.047 |
| TAFKATVFFLIRVAETR [YJL039C/NUP192] | 1.22 ± 0.063 |
| TAFKSSPFGGSSHAKGI [RPS23A] | 2.61 ± 0.053 |
| TAGKTSVKSARTSTRGR [SNF2] | 3.37 ± 0.052 |
| TAGNWVASQTVKKVIEI [PRE2] | 3.35 ± 0.084 |
| TAIAHSIREQVHMYHKS [SNF5] | 1.92 ± 0.047 |
| TAIDKNGNITYSEEPRE [FAS2] | 3.29 ± 0.066 |
| TASSLAHDYNNDQDMFT [YML103C/NUP188] | 3.04 ± 0.063 |
| TAVAFWSWDIAVDNCAI [HRT1] | 1.49 ± 0.067 |
| TCILHGPVAAQFTKVID [FAS1] | 2.25 ± 0.048 |
